US20110229475A1 (GlaxoSmithKline, published 2011)

Target: T1, human IL-8 (human, UniProt P10145 28-99, limits assumed)
T1 construct: also called hIL-8; hIL8
Test: TRFIA, chemokine coated on plate, biotinylated anti-mouse IgG and streptavidin-europium detection
Method: Briefly, each antigen (human IL-8, Gro-alpha, Gro-beta, Gro-gamma, GCP-2, and ENA-78, and hIL-18 when used as negative control) is individually coated onto a 96-well immunofluorescent plate. The plates are then washed and blocked with a commercially available blocking solution. Blocking solution is emptied and samples containing the mAb are added into each well and incubated for 40 to 60 minutes (this allows the mAb to bind to the target chemokines). The plates are then washed again and a detection Ab is added to each well. […] The detection antibody is conjugated to either europium or biotin. Following another round of washing, to remove unbound detection Ab, a solution of streptavidin-europium was added to biotin detected assays. Streptavidin-europium binds to the biotin allowing for detection. After a final wash to remove unbound streptavidin-europium, or in the case of the humanized MAb assay after the europium conjugate secondary is washed, each well is filled with a chelating detergent solution to activate the europium producing fluorescence. The greater the fluorescence recorded is directly proportionate to the amount of detection Ab present in the well which is directly linked and proportionate to the amount of the chemokine binding mAb.

B1: mouse monoclonal antibody 656.35 (antibody, IgG2a, V domains shown)
VH: QVQLQQSGAELVRPGTSVTISCKASGYTFTNYWIVWVKQRPGHGLEWIGDLYSGGGYTFYSENFKGKATLTADTSSSTAYMHLISLTSEDSAVYFCARSGYDRTWFAHWGQGSLVTVSA
VL: DIKMTQSPSSMSASLGERVTITCQASQDIESYLSWYQQKPWKSPKTLIYYATRLADGVPSRFSGSGSGQDYSLTISSLESDDTATYYCLQHGESPPTFGAGTKLELKR
notes: Murine hybridoma antibody; also called 2x656.35
  EC50 (read off the curve): ~0.04 µg/mL
